Experimental data taken from paper PMC8204385 (Biophysical Journal, 2021).
Several values for one entry are separate records, joined by “and”; a condition that tells them apart may be missing. Equal entries are not always repeated.

Molecular target: T1, human SHP-1 (Homo sapiens, UniProt P29350)
T1 construct: 6xHis (N); made in house; host or cells: Escherichia coli BL21-CodonPlus (DE3)-RIPL
Experiment: SPR-based assay for tethered SHP-1 reactions on immobilised phosphopeptides, extended MPDPDE model fit
Type: binding
Settings: 37°C; vertical intercept of regression of L^2 vs number of PEG linkers, all data except PEG0

T1 sequence (P29350 whole entry): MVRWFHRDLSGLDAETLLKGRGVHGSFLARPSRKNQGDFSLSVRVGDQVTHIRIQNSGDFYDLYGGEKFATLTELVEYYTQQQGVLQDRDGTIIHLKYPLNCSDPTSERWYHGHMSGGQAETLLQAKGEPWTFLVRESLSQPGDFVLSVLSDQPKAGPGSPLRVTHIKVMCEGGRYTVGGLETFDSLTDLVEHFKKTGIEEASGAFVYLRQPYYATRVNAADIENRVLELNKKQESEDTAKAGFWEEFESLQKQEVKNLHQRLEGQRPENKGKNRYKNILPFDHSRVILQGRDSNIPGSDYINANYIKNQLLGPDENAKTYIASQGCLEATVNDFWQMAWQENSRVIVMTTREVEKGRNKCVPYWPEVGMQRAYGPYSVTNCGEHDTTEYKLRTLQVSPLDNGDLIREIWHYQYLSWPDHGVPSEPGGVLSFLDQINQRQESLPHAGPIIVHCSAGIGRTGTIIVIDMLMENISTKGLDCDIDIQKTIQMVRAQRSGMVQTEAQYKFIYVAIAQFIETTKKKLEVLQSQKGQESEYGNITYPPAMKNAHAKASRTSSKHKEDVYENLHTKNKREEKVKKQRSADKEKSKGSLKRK

SHP-1: Human tyrosine phosphatase SHP-1 with an N-terminal 6× His tag produced in Escherichia coli
molecular reach of SHP-1 (LSHP-1): 13.0 nm and 13.0 ± 0.8 nm
